In patent US20120058906A1 (published 2012):
Blank lines part the entries; values can stand above or below the binder they belong to.

Assays:
[1] = target: T1, rHuman HGF R/c-MET/Fc Chimera, CF (R&D Systems Cat#358-MT/CF) (human, UniProt P08581 25-932); assay: MSD ECL titration, Fab 0.6 nM, blank 226;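 note: blank spot per well as comparator with Hit at signal to blank ratio of 4 or more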
T1 construct: Bought Fc chimera; also called HGF R/Fc; Fc part of the bought chimera not given

[2] = target: T2, rHuman P-Cadherin/Fc Chimera, CF (R&D Systems Cat#861-PC) (human, UniProt P22223 108-654); assay: MSD ECL titration, Fab 0.6 nM, blank 226;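 note: blank spot per well as comparator with Hit at signal to blank ratio of 4 or more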
T2 construct: Bought Fc chimera; Fc part of the bought chimera not given

[3] = target: T3, rHuman EGF R/Fc Chimera, CF (R&D Systems Cat#344-ER) (human, UniProt P00533 25-645); assay: MSD ECL titration, Fab 0.6 nM, blank 226;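 note: blank spot per well as comparator with Hit at signal to blank ratio of 4 or more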
T3 construct: Bought Fc chimera; Fc part of the bought chimera not given

[4] = target: T4, rHuman CD44/Fc Chimera, CF (R&D Systems Cat#3660-CD) (human, UniProt P16070 21-220); assay: MSD ECL titration, Fab 0.6 nM, blank 226;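 note: blank spot per well as comparator with Hit at signal to blank ratio of 4 or more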
T4 construct: Bought Fc chimera; Fc part of the bought chimera not given

[5] = target: T5, rHuman ErbB2/Fc Chimera, CF (R&D Systems Cat#1129-ER) (human, UniProt P04626 23-652); assay: MSD ECL titration, Fab 0.6 nM, blank 226;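 note: blank spot per well as comparator with Hit at signal to blank ratio of 4 or more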
T5 construct: Bought Fc chimera; also called HER2/neu; Fc part of the bought chimera not given

[6] = target: T6, Recombinant Human DLL4 (R&D Systems Cat#1506-D4/CF) (human, UniProt Q9NR61 27-524); assay: MSD ECL titration, Fab 0.6 nM, blank 226;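 note: blank spot per well as comparator with Hit at signal to blank ratio of 4 or more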
T6 construct: Bought recombinant protein; also called rHuman DLL4; delta-like protein 4

[7] = target: T7, rHuman Erythropoietin R/Fc Chimera, CF (R&D Systems Cat#963-ER) (human, UniProt P19235 25-250); assay: MSD ECL titration, Fab 0.6 nM, blank 226
T7 construct: Bought Fc chimera; also called EPO R/Fc; EPOR; Fc part of the bought chimera not given
T7 sequence: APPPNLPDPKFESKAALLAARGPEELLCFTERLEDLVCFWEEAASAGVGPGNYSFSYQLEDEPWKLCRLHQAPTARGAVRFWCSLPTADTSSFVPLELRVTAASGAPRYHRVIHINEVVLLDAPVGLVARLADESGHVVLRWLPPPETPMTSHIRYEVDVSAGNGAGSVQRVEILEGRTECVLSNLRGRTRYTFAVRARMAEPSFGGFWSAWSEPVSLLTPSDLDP

[8] = target: T8, rHuman Notch-1/Fc Chimera, CF (R&D Systems Cat#3647-TK) (human, UniProt P46531 19-526); assay: MSD ECL titration, Fab 0.6 nM, blank 226
T8 construct: Bought Fc chimera; Fc part of the bought chimera not given

[9] = target: T9, rHuman IGF-1 sR (insulin-like growth factor-1 soluble receptor), CF (R&D Systems Cat#391-GR) (human, UniProt P08069 31-932); assay: MSD ECL titration, Fab 0.6 nM, blank 226
T9 construct: Bought soluble receptor; also called IGF-R1

[10] = target: T10, rHuman Erythropoietin R/Fc Chimera, CF (R&D Systems Cat#963-ER) (human, UniProt P19235 25-250); assay: ECL (MSD multi-spot), antigen on plate, Fab 5 nM
T10 construct: Bought Fc chimera; also called EPO R/Fc; Epo R; not shown: Fc of the bought chimera
T10 sequence: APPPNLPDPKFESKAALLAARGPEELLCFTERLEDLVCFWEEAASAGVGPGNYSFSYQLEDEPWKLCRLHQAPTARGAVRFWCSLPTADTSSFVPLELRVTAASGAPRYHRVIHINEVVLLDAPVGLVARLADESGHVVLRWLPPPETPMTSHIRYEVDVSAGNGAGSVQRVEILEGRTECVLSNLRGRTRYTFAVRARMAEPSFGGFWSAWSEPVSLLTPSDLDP

[11] = target: T11, Recombinant Human DLL4 (R&D Systems Cat#1506-D4/CF) (human, UniProt Q9NR61 27-524); assay: ECL (MSD multi-spot), antigen on plate, Fab 5 nM
T11 construct: Bought recombinant protein; also called delta-like protein 4

[12] = target: T12, rHuman P-Cadherin/Fc Chimera, CF (R&D Systems Cat#861-PC) (human, UniProt P22223 108-654); assay: ECL (MSD multi-spot), antigen on plate, Fab 5 nM
T12 construct: Bought Fc chimera; also called CDH3; not shown: Fc of the bought chimera

[13] = target: T13, rHuman CD44/Fc Chimera, CF (R&D Systems Cat#3660-CD) (human, UniProt P16070 21-220); assay: ECL (MSD multi-spot), antigen on plate, Fab 5 nM
T13 construct: Bought Fc chimera; not shown: Fc of the bought chimera

[14] = target: T14, rHuman Notch-1/Fc Chimera, CF (R&D Systems Cat#3647-TK) (human, UniProt P46531 19-526); assay: ECL (MSD multi-spot), antigen on plate, Fab 5 nM
T14 construct: Bought Fc chimera; not shown: Fc of the bought chimera

[15] = target: T15, rHuman ErbB2/Fc Chimera, CF (R&D Systems Cat#1129-ER) (human, UniProt P04626 23-652); assay: ECL (MSD multi-spot), antigen on plate, Fab 5 nM
T15 construct: Bought Fc chimera; also called HER2/neu; not shown: Fc of the bought chimera

[16] = target: T16, rHuman HGF R/c-MET/Fc Chimera, CF (R&D Systems Cat#358-MT/CF) (human, UniProt P08581 25-932); assay: ECL (MSD multi-spot), antigen on plate, Fab 5 nM
T16 construct: Bought Fc chimera; also called HGF R/Fc; not shown: Fc of the bought chimera

[17] = target: T17, rHuman IGF-1 sR (insulin-like growth factor-1 soluble receptor), CF (R&D Systems Cat#391-GR) (human, UniProt P08069 31-932); assay: ECL (MSD multi-spot), antigen on plate, Fab 5 nM
T17 construct: Bought soluble receptor; also called IGF-R1

[18] = target: T18, rHuman EGF R/Fc Chimera, CF (R&D Systems Cat#344-ER) (human, UniProt P00533 25-645); assay: ECL (MSD multi-spot), antigen on plate, Fab 5 nM
T18 construct: Bought Fc chimera; also called ErbB-1; not shown: Fc of the bought chimera

[19] = target: T14, rHuman Notch-1/Fc Chimera, CF (R&D …); assay: ECL (MSD multi-spot), antigen on plate, Fab 0.4 nM;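 note: blank spot per well as comparator with Hit at signal to blank ratio of 4 or more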
[20] = target: T17, rHuman IGF-1 sR (insulin-like growth …); assay: ECL (MSD multi-spot), antigen on plate, Fab 0.4 nM;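 note: blank spot per well as comparator with Hit at signal to blank ratio of 4 or more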

ECL signal [1]: 256
ECL signal [2]: 321
ECL signal [3]: 309
ECL signal [4]: 238
ECL signal [5]: 215
ECL signal [6]: 508
ECL signal [7]: 337
ECL signal [8]: 337
ECL signal [9]: 313
B1: Fab VH1-46_IGHD6-6*01_IGHJ1*01 & L6_IGKJ1*01 (Fab, V domains shown)
VH: QVQLVQSGAEVKKPGASVKVSCKASGYTFTSYYMHWVRQAPGQGLEWMGIINPSGGSTSYAQKFQGRVTMTRDTSTSTVYMELSSLRSEDTAVYYCAREEYSSSSAEYFQHWGQGTLVTVSS
VL: not shown
notes: Expressed in E. coli as Fab: heavy chain with CH1 plus Flag and His tags from Plasmid A, kappa light chain constant region from Plasmid C; also called Fab No. 1

ECL signal [10]: 3580 ECL signal
ECL signal [11]: 73400 ECL signal
ECL signal [12]: 4160 ECL signal
ECL signal [13]: 2760 ECL signal
ECL signal [14]: 3230 ECL signal
ECL signal [15]: 2860 ECL signal
ECL signal [16]: 3100 ECL signal
ECL signal [17]: 3030 ECL signal
ECL signal [18]: 2980 ECL signal
B2: Fab VH1-46_IGHD6-6*01_IGHJ1*01_S102A_S103P_S104Y_H111Y & L6_IGKJ1*01 (Fab, V domains shown)
VH: QVQLVQSGAEVKKPGASVKVSCKASGYTFTSYYMHWVRQAPGQGLEWMGIINPSGGSTSYAQKFQGRVTMTRDTSTSTVYMELSSLRSEDTAVYYCAREEYAPYSAEYFQYWGQGTLVTVSS
VL: not shown
notes: Fab made in E. coli; The heavy chain also carries CH1 with Flag and His tags from Plasmid A, and the light chain carries kappa CL from Plasmid C

ECL signal [19]: 197 ECL signal
ECL signal [20]: 141 ECL signal
B3: Fab VH1-46_IGHD6-6*01_IGHJ1*01_S102A_S103P_S104F & L6_IGKJ1*01_S30N (Fab, V domains shown)
VH: QVQLVQSGAEVKKPGASVKVSCKASGYTFTSYYMHWVRQAPGQGLEWMGIINPSGGSTSYAQKFQGRVTMTRDTSTSTVYMELSSLRSEDTAVYYCAREEYAPFSAEYFQHWGQGTLVTVSS
VL: EIVLTQSPATLSLSPGERATLSCRASQSVNSYLAWYQQKPGQAPRLLIYDASNRATGIPARFSGSGSGTDFTLTISSLEPEDFAVYYCQQRSNWPPWTFGQGTKVEIKR
notes: Fab
